# Assay results published in patent US20240299529A1.
# Molecular target: human immunoglobulin G (hIgG) (human)
# Test: sandwich ELISA, hIgG coated on plate, CD64 titrated, monovalent fit
row,Kd [nM],Substance
1,0.0536,Flag-CD64 (from UniProt P12314 16-374) (receptor)
2,0.0456,recombinant wild-type CD64 (from UniProt P12314 16-374) (receptor)
